# Measured values: publication PMC12871438, “Single-molecule localization microscopy reveals the molecular organization of endogenous membrane receptors” (Science Advances, 2026)
# Columns and labels:
# [1] = molecular target: CD45 (human (endogenous in Jurkat)) (UniProt P08575); test: dSTORM localization statistics (number of localizations per cluster); live Jurkat T cells of large passage number labelled on ice with HI30-AF647, then fixed with 2% FA and 0.25% GA; TIRF on the basal membrane; DBSCAN clusters compared with theoretical monomer and dimer distributions
# [2] = molecular target: the molecule itself; test: dSTORM localization statistics (number of localizations per cluster); Jurkat T cells labelled with FN50-AF647, live on ice or after PFA or FA fixation, independent of the passage number; DBSCAN clusters compared with theoretical monomer and dimer distributions
Molecule,stoichiometry N [1],stoichiometry N [2]
CD45 (from UniProt P08575 26-1306) (receptor),2,
"CD69 (receptor, human (endogenous in Jurkat), UniProt Q07108 1-199, looked up, CD69, endogenous in the plasma membrane of human Jurkat T cells; the introduction describes it as a phosphorylated disulfide-linked homodimer; Written as the protomer; the self-association row gives the dimer; Detected with the anti-CD69 antibody FN50-AF647; source: endogenous, on Jurkat T cells (Jurkat E6-1)) MSSENCFVAENSSLHPESGQENDATSPHFSTRHEGSFQVPVLCAVMNVVFITILIIALIALSVGQYNCPGQYTFSMPSDSHVSSCSEDWVGYQRKCYFISTVKRSWTSAQNACSEHGATLAVIDSEKDMNFLKRYAGREEHWVGLKKEPGHPWKWSNGKEFNNWFNVTGSDKCVFLKNTEVSSMECEKNLYWICNKPYK",,2
